Measured values published in US20140294837A1 (SAMSUNG ELECTRONICS, published 2014).
Changes are numbered by the printed parent chain. Values belong to the binder of their own block, whether it stands above or below them.

What was measured:
[1] = molecular target: c-Met on cells (MKN45, Caki-1, NCI-H441, HUVEC) (human, UniProt P08581 25-1390); experiment: cell-based or functional assay
[2] = molecular target: T1, c-Met (R&D Systems, Cat. No. 358-MT/CF) (UniProt P08581 25-932); experiment: SPR, Biacore T100; antibody captured by human Fab binder on CM5 chip, c-Met injected
T1 construct: Bought protein used as analyte in SPR
Procedure: The binding kinetics of the double-targeted fusion proteins manufactured in the above were analyzed using Biacore T100 instrument (GE Healthcare). A human Fab binding agent (GE Healthcare) was immobilized on the surface of a CM5 chip (GE Healthcare, Cat. No. BR-1005-30) according to the manufacturer's manual. […] Then, 10 mM Glycine-HCl (pH 1.5) solution was added thereto, whereby the surface was regenerated. In order to measure the binding kinetics, the data obtained from the above experiment was fitted using BIAevaluation software (GE Healthcare, Biacore T100 evaluation software).

[3] = molecular target: hVEGF (GE Healthcare, 28-9583-25) (human, UniProt P15692-4 27-191); experiment: SPR, Biacore T100; hVEGF immobilized on CM5 chip, MV10AY at 6 concentrations
Procedure: The binding kinetics of the double-specific antibodies having VEGF as a target were measured by an SPR method using Biacore T100 instrument (GE Healthcare). hVEGF (GE Healthcare, 28-9583-25) was immobilized on the surface of a CM5 chip according to the manufacturer's manual. […] The obtained surface was regenerated by injecting 1M NaCl+30 mM NaOH at a fluid rate of 30 μl/min for 60 sec. In order to determine binding kinetics, the data obtained from the above experiment was fitted using BIAevaluation software (GE Healthcare) (K_{D=}=0.45 nM).

[4] = molecular target: T2, human c-Met/Fc fusion protein (R&D Systems) (human, UniProt P08581 25-932); experiment: ELISA, hybridoma culture on plate-coated human c-Met/Fc fusion protein
T2 construct: Immunogen and ELISA antigen; also called human c-Met/Fc protein; not shown: Fc part of the bought fusion protein; not described
T2 sequence (P08581 25-932 limits assumed): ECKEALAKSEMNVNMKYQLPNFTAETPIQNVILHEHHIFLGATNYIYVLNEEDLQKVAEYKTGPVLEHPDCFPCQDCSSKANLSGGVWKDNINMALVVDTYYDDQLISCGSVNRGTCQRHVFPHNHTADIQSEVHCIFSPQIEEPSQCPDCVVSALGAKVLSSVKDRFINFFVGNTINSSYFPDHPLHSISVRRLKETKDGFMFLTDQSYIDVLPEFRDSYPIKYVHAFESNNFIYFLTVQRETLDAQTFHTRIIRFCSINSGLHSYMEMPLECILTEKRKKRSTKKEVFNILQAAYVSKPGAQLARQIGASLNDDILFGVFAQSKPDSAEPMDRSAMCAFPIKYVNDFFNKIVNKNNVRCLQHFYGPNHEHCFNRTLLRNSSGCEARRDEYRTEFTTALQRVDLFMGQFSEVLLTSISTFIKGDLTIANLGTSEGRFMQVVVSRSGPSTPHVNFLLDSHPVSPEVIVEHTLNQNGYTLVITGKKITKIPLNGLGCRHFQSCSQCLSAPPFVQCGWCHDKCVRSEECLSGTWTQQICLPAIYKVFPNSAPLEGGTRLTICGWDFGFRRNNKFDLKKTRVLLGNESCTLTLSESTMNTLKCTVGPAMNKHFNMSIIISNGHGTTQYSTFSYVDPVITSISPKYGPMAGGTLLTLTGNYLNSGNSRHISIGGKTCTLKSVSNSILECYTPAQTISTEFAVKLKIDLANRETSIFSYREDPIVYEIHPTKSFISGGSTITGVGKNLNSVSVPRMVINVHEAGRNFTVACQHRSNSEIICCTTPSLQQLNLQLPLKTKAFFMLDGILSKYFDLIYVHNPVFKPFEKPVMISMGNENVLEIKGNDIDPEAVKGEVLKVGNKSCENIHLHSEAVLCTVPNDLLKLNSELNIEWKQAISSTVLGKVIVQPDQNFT

T1 sequence (P08581 25-932 limits assumed): as above
c-Met on cells (MKN45, Caki-1, NCI-H441, HUVEC), sequence (P08581 25-1390): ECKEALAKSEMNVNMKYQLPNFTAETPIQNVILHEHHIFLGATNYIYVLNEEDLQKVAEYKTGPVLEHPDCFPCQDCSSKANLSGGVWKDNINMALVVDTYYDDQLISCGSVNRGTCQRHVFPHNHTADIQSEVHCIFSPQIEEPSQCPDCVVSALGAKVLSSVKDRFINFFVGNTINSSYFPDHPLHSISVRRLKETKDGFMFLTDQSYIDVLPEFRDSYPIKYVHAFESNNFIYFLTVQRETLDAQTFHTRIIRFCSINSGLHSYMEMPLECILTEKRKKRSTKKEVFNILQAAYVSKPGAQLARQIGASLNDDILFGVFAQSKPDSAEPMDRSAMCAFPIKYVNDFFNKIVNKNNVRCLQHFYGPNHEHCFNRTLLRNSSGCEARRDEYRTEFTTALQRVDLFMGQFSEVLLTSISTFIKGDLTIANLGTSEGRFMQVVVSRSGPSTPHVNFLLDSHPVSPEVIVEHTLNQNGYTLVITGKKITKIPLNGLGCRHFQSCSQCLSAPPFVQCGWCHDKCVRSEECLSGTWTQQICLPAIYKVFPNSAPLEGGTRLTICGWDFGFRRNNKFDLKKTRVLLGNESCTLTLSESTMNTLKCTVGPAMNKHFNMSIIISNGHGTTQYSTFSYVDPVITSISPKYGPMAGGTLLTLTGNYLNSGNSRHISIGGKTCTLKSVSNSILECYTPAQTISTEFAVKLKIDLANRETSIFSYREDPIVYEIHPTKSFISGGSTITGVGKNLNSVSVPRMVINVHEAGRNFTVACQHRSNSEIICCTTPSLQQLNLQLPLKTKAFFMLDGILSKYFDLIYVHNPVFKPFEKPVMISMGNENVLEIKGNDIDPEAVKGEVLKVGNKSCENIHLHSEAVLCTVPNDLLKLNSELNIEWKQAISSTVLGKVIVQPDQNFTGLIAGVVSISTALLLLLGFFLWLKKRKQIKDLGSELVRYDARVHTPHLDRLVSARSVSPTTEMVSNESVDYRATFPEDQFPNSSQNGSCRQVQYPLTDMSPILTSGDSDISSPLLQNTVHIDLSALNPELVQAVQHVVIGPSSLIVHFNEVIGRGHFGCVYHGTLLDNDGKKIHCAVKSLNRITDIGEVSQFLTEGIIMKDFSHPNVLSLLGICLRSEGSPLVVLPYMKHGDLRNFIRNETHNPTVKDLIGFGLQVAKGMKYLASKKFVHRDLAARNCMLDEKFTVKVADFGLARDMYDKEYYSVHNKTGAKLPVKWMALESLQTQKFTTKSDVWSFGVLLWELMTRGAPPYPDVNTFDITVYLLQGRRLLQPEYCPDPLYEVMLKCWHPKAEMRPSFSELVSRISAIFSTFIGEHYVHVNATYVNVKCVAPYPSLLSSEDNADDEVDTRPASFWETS
hVEGF (GE Healthcare, 28-9583-25), sequence (P15692 other isoform, or with tags, fused parts or gaps limits assumed): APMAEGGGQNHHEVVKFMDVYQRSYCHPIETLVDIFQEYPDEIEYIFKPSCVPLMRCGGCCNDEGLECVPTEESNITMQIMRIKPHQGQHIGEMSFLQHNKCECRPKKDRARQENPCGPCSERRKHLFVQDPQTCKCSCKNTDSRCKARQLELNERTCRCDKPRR

B2: L3-1Y (antibody, V domains shown)
VH: EVQLVESGGGLVQPGGSLRLSCAASGFTFTDYYMSWVRQAPGKGLEWLGFIRNKANGYTTEYSASVKGRFTISRDNSKNTLYLQMNSLRAEDTAVYYCARDNWFAYWGQGTLVTVSS
VL: DIQMTQSPSSLSASVGDRVTITCKSSQSLLASGNQNNYLAWYQQKPGKAPKMLIIWASTRVSGVPSRFSGSGSGTDFTLTISSLQPEDFATYYCQQSYSRPYTFGQGTKVEIKR
notes: also called c-Met single-targeted antibody L3-1Y
AKT phosphorylation inhibitory ability (phospho-AKT Ser473 ELISA, Caki-1 cells, compared to 5D5 control group) [1]: 63%
c-Met degradation ability (total c-Met ELISA, MKN45 cells, 5 ug/ml antibody, 24 h) [1]: 66%
Kd [2]: < 0.01 nM
koff [2]: < 1.2e-05 s⁻¹
kon [2]: 770000 M⁻¹ s⁻¹

B3: MV10A (bispecific antibody)
heavy: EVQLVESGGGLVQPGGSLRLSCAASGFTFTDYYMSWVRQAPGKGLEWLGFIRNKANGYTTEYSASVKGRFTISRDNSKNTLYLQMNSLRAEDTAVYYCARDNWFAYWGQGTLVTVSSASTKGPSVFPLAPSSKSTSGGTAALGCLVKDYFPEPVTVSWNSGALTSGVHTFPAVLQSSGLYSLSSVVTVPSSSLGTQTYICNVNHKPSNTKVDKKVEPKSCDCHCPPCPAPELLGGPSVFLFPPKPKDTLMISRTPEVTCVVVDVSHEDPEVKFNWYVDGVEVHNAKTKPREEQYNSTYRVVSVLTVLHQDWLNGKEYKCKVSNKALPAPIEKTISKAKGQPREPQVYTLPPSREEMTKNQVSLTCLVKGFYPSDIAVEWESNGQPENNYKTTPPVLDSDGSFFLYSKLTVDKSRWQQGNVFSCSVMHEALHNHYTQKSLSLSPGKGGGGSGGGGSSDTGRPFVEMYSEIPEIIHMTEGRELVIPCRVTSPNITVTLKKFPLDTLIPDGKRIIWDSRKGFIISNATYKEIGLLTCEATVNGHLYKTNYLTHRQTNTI
light: DIQMTQSPSSLSASVGDRVTITCKSSQSLLASGNQNNHLAWYQQKPGKAPKMLIIWASTRVSGVPSRFSGSGSGTDFTLTISSLQPEDFATYYCQQSYSRPYTFGQGTKVEIKRTVAAPSVFIFPPSDEQLKSGTASVVCLLNNFYPREAKVQWKVDNALQSGNSQESVTEQDSKDSTYSLSSTLTLSKADYEKHKVYACEVTHQGLSSPVTKSFNRGEC
AKT phosphorylation inhibitory ability (phospho-AKT Ser473 ELISA, Caki-1 cells, compared to 5D5 control group) [1]: 79%
c-Met degradation ability (total c-Met ELISA, MKN45 cells, 5 ug/ml antibody, 24 h) [1]: 76%

B6: Ab2 (antibody, V domains shown)
VH: QVQLVQSGAEVKKPGASVKVSCKASGYIFTAYTMHWVRQAPGQGLDWMGGIKPNNGLANYAQKFQGRVTMTVDKSISTAYMELSRLRSDDTAVYYCARSEITTEFDYWGQGTLVTVSS
VL: DIVLTQSPDSLAVSLGERATINCRSSESVDSYANSFMHWYQQKPGQPPKLLIYRASTRESGVPDRFSGSGSRTDFTLTISSLQAEDVAVYYCQQSKEDPLTFGGGTKVEIKR
c-Met degradation ability (total c-Met ELISA, method of Example 2.2) [1]: 70.4%

Results, then the binder that gave them:

AKT phosphorylation inhibitory ability (phospho-AKT Ser473 ELISA, Caki-1 cells, compared to 5D5 control group) [1]: 69%
c-Met degradation ability (total c-Met ELISA, MKN45 cells, 5 ug/ml antibody, 24 h) [1]: 68%
B1: huAbF46-H4-A1 (L3-1 origin) (antibody, V domains shown)
VH: B2 VH
VL: B2 VL with Y38H

AKT phosphorylation inhibitory ability (phospho-AKT Ser473 ELISA, Caki-1 cells, compared to 5D5 control group) [1]: 74%
c-Met degradation ability (total c-Met ELISA, MKN45 cells, 5 ug/ml antibody, 24 h) [1]: 72%
Kd [2]: < 0.01 nM
koff [2]: < 1.4e-05 s⁻¹
kon [2]: 680000 M⁻¹ s⁻¹
Kd [3]: 0.45 nM
koff [3]: 0.0011 s⁻¹
kon [3]: 2.4e+06 M⁻¹ s⁻¹
B4: MV10AY (bispecific antibody)
heavy: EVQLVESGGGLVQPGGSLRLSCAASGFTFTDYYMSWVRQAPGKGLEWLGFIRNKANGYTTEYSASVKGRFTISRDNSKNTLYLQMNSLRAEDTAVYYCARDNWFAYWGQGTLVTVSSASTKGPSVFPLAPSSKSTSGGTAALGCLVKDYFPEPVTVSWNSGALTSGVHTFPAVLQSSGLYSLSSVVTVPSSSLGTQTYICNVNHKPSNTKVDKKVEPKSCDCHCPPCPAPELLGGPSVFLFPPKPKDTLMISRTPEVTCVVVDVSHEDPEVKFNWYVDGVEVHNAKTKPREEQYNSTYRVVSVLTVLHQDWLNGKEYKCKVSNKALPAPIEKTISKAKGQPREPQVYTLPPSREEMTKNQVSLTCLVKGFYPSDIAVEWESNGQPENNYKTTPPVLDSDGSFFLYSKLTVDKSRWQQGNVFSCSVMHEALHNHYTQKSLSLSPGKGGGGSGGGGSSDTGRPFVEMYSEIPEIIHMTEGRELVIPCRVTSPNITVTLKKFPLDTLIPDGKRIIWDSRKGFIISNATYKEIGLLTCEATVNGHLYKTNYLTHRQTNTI
light: B3 light with H38Y
notes: also called bispecific antibody MV10AY; double-specific antibody MV10AY

Kd [2]: < 0.01 nM
koff [2]: < 6.9e-05 s⁻¹
kon [2]: 720000 M⁻¹ s⁻¹
B5: MV10AY U3 HC9/IgG2 (bispecific antibody)
heavy: EVQLVESGGGLVQPGGSLRLSCAASGFTFTDYYMSWVRQAPGKGLEWLGFIRNKANGYTTEYSASVKGRFTISRDNSKNTLYLQMNSLRAEDTAVYYCARDNWFAYWGQGTLVTVSSASTKGPSVFPLAPCSRSTSESTAALGCLVKDYFPEPVTVSWNSGALTSGVHTFPAVLQSSGLYSLSSVVTVPSSNFGTQTYTCNVDHKPSNTKVDKTVERKCCVECPPCPAPPVAGPSVFLFPPKPKDTLMISRTPEVTCVVVDVSHEDPEVQFNWYVDGVEVHNAKTKPREEQFNSTFRVVSVLTVVHQDWLNGKEYKCKVSNKGLPAPIEKTISKTKGQPREPQVYTLPPSREEMTKNQVSLTCLVKGFYPSDIAVEWESNGQPENNYKTTPPMLDSDGSFFLYSKLTVDKSRWQQGNVFSCSVMHEALHNHYTQKSLSLSPGKGGGGSGGGGSSDTGRPFVEMYSEIPEIIHMTEGRELVIPCRVTSPNITVTLKKFPLDTLIPDGKRIIWDSRKGFIISNATYKEIGLLTCEATVNGHLYKTNYLTHRQTNTI
light: B3 light with H38Y

binding result [4]: binds
B7: AbF46, a mouse antibody to c-Met (antibody, V domains shown)
VH: EVKLVESGGGLVQPGGSLRLSCATSGFTFTDYYMSWVRQPPGKALEWLGFIRNKANGYTTEYSASVKGRFTISRDNSQSILYLQMDTLRAEDSATYYCARDNWFAYWGQGTLVTVSA
VL: DILMTQSPSSLTVSAGEKVTMSCKSSQSLLASGNQNNYLAWHQQKPGRSPKMLIIWASTRVSGVPDRFIGSGSGTDFTLTINSVQAEDLAVYYCQQSYSAPLTFGAGTKLELK
notes: also called monoclonal antibody of hybridoma KCLRF-BP-00220
